Assay results taken from paper doi:10.1101/636423.

What was measured:
[1] = target: whole intracellular region of rat PTPRZ (rat PTPRZ-ICR) (rat) (UniProt Q62656); test: inhibition of PTPase catalytic activity
[2] = target: whole intracellular region of rat PTPRZ (rat PTPRZ-ICR) (rat) (UniProt Q62656); test: native MS

Sequence of F2Pmp-GIT1_(550–556), non-hydrolyzable pTyr mimetic (F2Pmp)-containing substrate-mimetic inhibitor peptide (Q9Z272 whole entry, looked up, tested part not stated): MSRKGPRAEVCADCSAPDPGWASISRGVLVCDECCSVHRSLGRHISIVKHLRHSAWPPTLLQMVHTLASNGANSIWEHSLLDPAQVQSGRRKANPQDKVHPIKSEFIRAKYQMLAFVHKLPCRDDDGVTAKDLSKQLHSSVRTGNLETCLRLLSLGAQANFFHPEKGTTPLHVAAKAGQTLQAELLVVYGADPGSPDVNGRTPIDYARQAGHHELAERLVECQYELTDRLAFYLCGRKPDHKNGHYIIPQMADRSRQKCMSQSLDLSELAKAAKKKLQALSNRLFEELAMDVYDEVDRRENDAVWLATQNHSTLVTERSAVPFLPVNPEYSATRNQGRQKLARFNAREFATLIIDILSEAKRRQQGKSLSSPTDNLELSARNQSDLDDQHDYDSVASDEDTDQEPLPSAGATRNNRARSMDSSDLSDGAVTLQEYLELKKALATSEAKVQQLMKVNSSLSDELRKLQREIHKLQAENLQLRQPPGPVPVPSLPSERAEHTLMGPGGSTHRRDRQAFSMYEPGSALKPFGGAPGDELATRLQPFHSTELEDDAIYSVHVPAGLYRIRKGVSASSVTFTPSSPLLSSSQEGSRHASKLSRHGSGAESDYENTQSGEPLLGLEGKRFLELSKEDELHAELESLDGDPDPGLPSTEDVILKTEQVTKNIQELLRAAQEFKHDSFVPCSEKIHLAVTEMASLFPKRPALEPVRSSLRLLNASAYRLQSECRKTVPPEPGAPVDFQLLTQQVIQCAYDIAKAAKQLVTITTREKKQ
Sequence of whole intracellular region of rat PTPRZ (rat PTPRZ-ICR) (rat) (Q62656 1699-2316): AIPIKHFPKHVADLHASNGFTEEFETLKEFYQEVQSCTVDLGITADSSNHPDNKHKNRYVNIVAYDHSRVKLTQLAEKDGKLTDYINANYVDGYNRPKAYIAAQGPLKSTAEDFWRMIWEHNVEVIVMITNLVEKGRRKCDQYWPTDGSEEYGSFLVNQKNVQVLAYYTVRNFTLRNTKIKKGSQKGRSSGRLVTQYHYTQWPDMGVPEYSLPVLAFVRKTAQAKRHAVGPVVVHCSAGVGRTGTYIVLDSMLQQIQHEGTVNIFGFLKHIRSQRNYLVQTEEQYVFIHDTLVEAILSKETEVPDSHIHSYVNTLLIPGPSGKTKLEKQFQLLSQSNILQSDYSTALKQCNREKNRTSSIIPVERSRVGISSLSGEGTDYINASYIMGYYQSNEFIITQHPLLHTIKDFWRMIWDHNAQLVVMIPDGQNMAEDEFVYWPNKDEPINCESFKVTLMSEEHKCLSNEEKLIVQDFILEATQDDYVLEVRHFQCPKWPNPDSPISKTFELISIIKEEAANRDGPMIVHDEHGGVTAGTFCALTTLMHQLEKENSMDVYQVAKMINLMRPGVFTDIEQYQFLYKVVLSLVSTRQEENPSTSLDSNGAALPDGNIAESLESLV

## F2Pmp-GIT1_(550–556), non-hydrolyzable pTyr mimetic (F2Pmp)-containing substrate-mimetic inhibitor peptide (from UniProt Q9Z272 550-556)
[1]
  Ki: 3.1 µM
[2]
  stoichiometry N: 1
